We go through one molecule from patent US20240189443A1, “PD-L1 AND TLR7 DOUBLE-TARGETING NANOBODY COUPLING DRUG AND USE THEREOF IN ANTI-TUMOR” (SHANGHAI INSTITUTE OF MATERIA MEDICA, CHINESE ACADEMY OF …, priority 2021, published 2024).

The target of one test is T1, HEK293T/mPD-L1 (Mus musculus, UniProt Q9EP73).
T1 construct: expressed in transfected cells; host or cells: HEK293T
Description: Flow cytometry PD-L1 binding activity assay of the nanobody coupling drug. To be noted: 17 concentrations 100-0.0008 μg/mL. (A flow cytometer gives signals particle by particle.)

The next test concerns non-induced CT26. As to the kind of experiment: Uninduced (low expression) PD-L1 CT26 subcutaneous tumor-bearing model. The class given is in vivo, BALB/c mouse. The note with it: 10 mg/kg intraperitoneal, 4 doses. The source says:
(§1) In FIG. 8A, it has been shown that the non-induced CT26 cell surface PD-L1 expression is approximately 17.3%, and the expression level of PD-L1 is increased to 98.1% only after IFN-γ induction. Therefore, we researched and compared the effects of the coupling compound in the non-induced and induced CT26 mouse tumor model, respectively.
(§2) In the two models, CT26 tumor cells were subcutaneously inoculated into female BALB/c mice before and after induction respectively to construct tumor-bearing mouse models, and the inoculation amount was 1×10^6 cells/one; the mice are randomly divided into two groupswith 6 mice of each group, that is, a blank control group mFc (the concentration is 10 mg/kg), and a coupling compound Nb16-SZU-101 group (the concentration was 10 mg/kg); the administration dosage was 200 μl, and the administration modes were both intraperitoneal administration; administration was performed on Day 2, Day 5, Day 8 and Day 11 respectively, and administration was carried out for 4 times; the size of the tumor was measured for 2-3 times every week, and a tumor growth curve was drawn; and anatomical weighing and photographing were performed on the mouse at Day 12.

The next test deals with induced CT26. Description: Induced (high expression) PD-L1 CT26 subcutaneous tumor-bearing model. The test is classed as in vivo, BALB/c mouse. The note with it: 10 mg/kg intraperitoneal, 4 doses.
Description: as §1, §2

Test [1] concerns CD4+T cells, CD8+T cells, NK cells, macrophages. As to the kind of experiment: Immune cell deletion analysis of conjugate efficacy. The class given is in vivo, Balb/c mice. The source says: Balb/c mice were randomized into 6 groups of 6 mouse each. Corresponding groups are: MFC group, Nb16-SZU-101 group, Nb16-SZU-101+anti-CD4 group, Nb16-SZU-101+anti-CD8 group, Nb16-SZU-101+anti-NK1.1 group, Nb16-SZU-101+chlorophosphate liposome group. The administration of the mFc and Nb16-SZU-101 was consistent with example 8.1.
The immune cell deletion method comprised: deleting corresponding immune cells (CD4+T cells, CD8+T cells, NK cells) by intraperitoneal injection of antibody drugs (anti-CD4, anti-CD8, anti-NK1.1) respectively in Day 3 (200 ug/one)/Day 4 (100 ug/one)/Day 5 (100 ug/one), or intraperitoneal injection of chlorophosphate-liposomes to remove macrophages.
On Day 14 the mice would be euthanized.

T1 sequence (Q9EP73 19-290): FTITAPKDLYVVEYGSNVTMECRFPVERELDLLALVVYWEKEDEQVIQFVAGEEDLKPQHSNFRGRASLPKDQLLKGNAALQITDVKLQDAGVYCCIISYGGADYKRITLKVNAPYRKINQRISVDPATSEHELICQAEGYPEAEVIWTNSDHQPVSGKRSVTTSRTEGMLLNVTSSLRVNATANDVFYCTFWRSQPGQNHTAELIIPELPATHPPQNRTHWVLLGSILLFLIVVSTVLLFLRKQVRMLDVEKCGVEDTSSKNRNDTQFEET

B1: Nb16-SZU-101: PD-L1 and TLR7 dual-targeting nanobody coupling drug, Nb16 coupled with SZU-101-NHS active ester (conjugate)
chain: QVQLQESGGGSVQAGGSLRLSCAASGYTDRNYWMGWFRQAPGKEREGVAALYTRTGSTYYADSVKGRFTISHDNAKNTLYLQMNSLKPEDTAVYYCAADSNAYGLAPLHHYWGQGTQVTVSS
modifications: left off: a dimerising Fc or GST
For the molecule B1, the “PD-L1 binding activity of conjugate compared with Nb16” value with HEK293T/mPD-L1 is recorded as “does not change the binding activity”. Also, the “Tumor growth inhibition rate” value with non-induced CT26 was 78.9%; with induced CT26, 83.6%. In addition, in test [1] (anti-CD4 or chlorophosphate liposomes intraperitoneal), the “Effect of deletion of CD4+T cells and macrophages on efficacy” value was “little influence on the efficacy”. In addition, the “Effect of deletion of CD8+T cells and NK cells on efficacy” value in test [1] (anti-CD8 or anti-NK1.1 intraperitoneal) was “greatly affects the efficacy”.
